Laboratory results from US20100081792A1 (published 2010).

Assays:
human VEGF = target: T1, human VEGF (human, UniProt P15692-4 27-191); assay: receptor binding assay, dAb cross-linked by anti-Myc tag antibody
T1 construct: also called VEGF165

mouse VEGF = target: T2, mouse VEGF (mouse, UniProt Q00731-2 27-190, limits assumed); assay: as above
T2 sequence (looked up): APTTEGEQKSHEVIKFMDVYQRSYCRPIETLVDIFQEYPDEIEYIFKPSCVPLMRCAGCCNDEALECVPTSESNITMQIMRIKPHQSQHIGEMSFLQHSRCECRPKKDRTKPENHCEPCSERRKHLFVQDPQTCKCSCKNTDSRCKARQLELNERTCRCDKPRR

IC50 (human VEGF): 3 nM
IC50 (mouse VEGF): 10 nM
B1: TAR15-26 (other)
VH: EVQLLESGGGLVQPGGSLRLSCAASGFTFGAYPMMWVRQAPGKGLEWVSEISPSGSYTYYADSVKGRFTISRDNSKNTLYLQMNSLRAEDTAVYYCAKDPRKFDYWGQGTLVTVSS
notes: VH dAb; carries a Myc tag in the cross-linked assay
